According to patent US20240181094A1, “[161Tb]-BASED RADIOPEPTIDES” (priority 2021, published 2024):
Positions of bridges follow the written chain, without caps; N, C: chain ends. Non-standard residues stand in square brackets, D forms with d. Residues, ends and D or L forms follow the SMILES beside them. *: point of attachment. DOTA = O=C(O)CN1CCN(CC(=O)O)CCN(CC(=O)*)CCN(CC(=O)O)CC1; dPhe(4-NHCONH2) = NC(=O)Nc1ccc(C[C@@H](N)C(=O)O)cc1; Phe(4-Cl) = N[C@@H](Cc1ccc(Cl)cc1)C(=O)O

Tests used:
[1] = mouse, in vivo
Procedure: Early side effects were assessed based on the RBW of each mouse which was monitored every second day. When an endpoint was reached or at the end of the study (after 49 days), relevant organs and tissues were collected, weighed and put into relation to the brain mass and body weight of the respective mouse. This allowed comparison of organ-to-brain and organ-to-body mass weight ratios. In addition, blood plasma parameters from blood collected immediately after euthanasia were measured.
RBW, organ mass and mass ratios at the endpoint. The RBW was monitored every second day. Mice were euthanized when a predefined endpoint criterion was reached or when the study was terminated at Day 49. RBWs, organ masses, organ mass ratios (kidney-to-brain, liver-to-brain and spleen-to-brain) and organ mass to body weight ratios (kidney-to-body mass, liver-to-body mass and spleen-to-body mass) were analyzed for significance using a one-way ANOVA test with a Tukey's multiple comparisons post-test. A p-value of <0.05 was considered as statistically significant.
Blood plasma chemistry: Immediately before euthanasia of the mice that reached the endpoint, blood was sampled from the retrobulbar vein. The values of creatinine (CRE), blood urea nitrogen (BUN), alkaline phosphatase (ALP), total bilirubin (TBIL) and albumin (ALB) were determined in the plasma after centrifugation of the blood using a dry chemistry analyzer (DRI-CHEM 4000 i, FUJIFILM, Japan). The average blood plasma parameters of each group were analyzed for significance using a one-way ANOVA test with a Tukey's multiple comparisons post-test. A p-value of <0.05 was considered as statistically significant.

[2] = in vivo; settings: female, athymic nude CD-1 Foxn-1/nu, mouse, iv, 1 nmol/mouse, total radioactivity
[3] = system: AR42J tumor-bearing mice; experiment: Biodistribution studies: assessment of the optimum injected molar amount; settings: 2 h p.i.
[4] = system: AR42 J tumor-bearing mice; experiment: Preclinical therapy study in AR42 J tumor-bearing mice; assay type: in vivo; settings: 2 x 10 MBq

With `C[C@@H](O)[C@@H]1NC(=O)[C@H](CCCCN)NC(=O)[C@@H](Cc2ccc(NC(N)=O)cc2)NC(=O)[C@H](Cc2ccc(O)cc2)NC(=O)[C@H](NC(=O)[C@H](Cc2ccc(Cl)cc2)NC(=O)CN2CCN(CC(=O)O)CCN(CC(=O)O)CCN(CC(=O)O)CC2)CSSC[C@@H](C(=O)N[C@H](Cc2ccc(O)cc2)C(N)=O)NC1=O` [metal not drawn] ({DOTA}-[Phe(4-Cl)][dC]Y[dPhe(4-NHCONH2)]KTC[dY]-NH2; disulfide 2-7) the “ALB (albumin), plasma” value [1] was 23 ± 1 g/L, the “ALP (alkaline phosphatase), plasma” value [1] was 66 ± 5 U/L and the “CRE (creatinine), plasma” value [1] was 19 µmol/L. The “Organ mass Brain” value [1] was 471 ± 30 mg, the “Organ mass Kidneys” value [1] was 336 ± 13 mg and the “Organ mass Liver” value [1] was 1254 ± 106 mg. The “Organ mass Spleen” value [1] was 92 ± 17 mg, the tissue uptake at 2 h [2] was ≤ 0.1 %ID/g and the tissue uptake at 24 h [2] was ≤ 0.1 %ID/g.
For `C[C@@H](O)[C@@H]1NC(=O)[C@H](CCCCN)NC(=O)[C@@H](Cc2c[nH]c3ccccc23)NC(=O)[C@H](Cc2ccc(O)cc2)NC(=O)[C@@H](NC(=O)[C@@H](Cc2ccccc2)NC(=O)CN2CCN(CC(=O)O)CCN(CC(=O)O)CCN(CC(=O)O)CC2)CSSC[C@@H](C(=O)N[C@H](CO)[C@@H](C)O)NC1=O` [[^161Tb]Tb-DOTATOC] [metal not drawn], the “AR42J Tumor uptake” value ([3]; 0.040 nmol/mouse) was 16 ± 4 % IA/g, the Adrenals uptake ([3]; 0.040 nmol/mouse) was 0.65 ± 0.08 % IA/g and the Intestines uptake ([3]; 0.040 nmol/mouse) was 0.52 ± 0.15 % IA/g. The Kidneys uptake ([3]; 0.040 nmol/mouse) was 9.0 ± 2.0 % IA/g, the Liver uptake ([3]; 0.040 nmol/mouse) was 0.22 ± 0.02 % IA/g and the Pancreas uptake ([3]; 0.040 nmol/mouse) was 2.1 ± 0.5 % IA/g. For the same compound, the Spleen uptake ([3]; 0.040 nmol/mouse) was 0.50 ± 0.11 % IA/g, the Stomach uptake ([3]; 0.040 nmol/mouse) was 2.9 ± 1.1 % IA/g and the “AR42J Tumor uptake” value ([3]; 0.20 nmol/mouse) was 14 ± 1 % IA/g. The Adrenals uptake ([3]; 0.20 nmol/mouse) was 0.43 ± 0.11 % IA/g, the Blood uptake ([3]; 0.20 nmol/mouse) was ≤0.10 % IA/g and the Femur uptake ([3]; 0.20 nmol/mouse) was 0.12 ± 0.03 % IA/g. The Intestines uptake ([3]; 0.20 nmol/mouse) was 0.24 ± 0.01 % IA/g, the Kidneys uptake ([3]; 0.20 nmol/mouse) was 9.4 ± 0.4 % IA/g and the Liver uptake ([3]; 0.20 nmol/mouse) was 0.19 ± 0.03 % IA/g. It also gave a Lung uptake ([3]; 0.20 nmol/mouse) of 0.47 ± 0.05 % IA/g, a Pancreas uptake ([3]; 0.20 nmol/mouse) of 1.5 ± 0.2 % IA/g and a Spleen uptake ([3]; 0.20 nmol/mouse) of 0.18 ± 0.02 % IA/g. For the same compound, the “AR42J Tumor uptake” value ([3]; 1.0 nmol/mouse) was 8.2 ± 0.2 % IA/g, the Adrenals uptake ([3]; 1.0 nmol/mouse) was 0.25 ± 0.06 % IA/g and the Blood uptake ([3]; 1.0 nmol/mouse) was ≤0.10 % IA/g. For the same compound, the Femur uptake ([3]; 1.0 nmol/mouse) was ≤0.10 % IA/g, the Heart uptake ([3]; 1.0 nmol/mouse) was ≤0.10 % IA/g and the Intestines uptake ([3]; 1.0 nmol/mouse) was 0.21 ± 0.13 % IA/g. It also gave a Kidneys uptake ([3]; 1.0 nmol/mouse) of 9.9 ± 1.3 % IA/g, a Liver uptake ([3]; 1.0 nmol/mouse) of 0.17 ± 0.01 % IA/g and a Lung uptake ([3]; 1.0 nmol/mouse) of 0.27 ± 0.03 % IA/g. For the same compound, the Muscle uptake ([3]; 1.0 nmol/mouse) was ≤0.10 % IA/g, the Pancreas uptake ([3]; 1.0 nmol/mouse) was 0.71 ± 0.07 % IA/g and the Spleen uptake ([3]; 1.0 nmol/mouse) was 0.11 ± 0.02 % IA/g. The Stomach uptake ([3]; 1.0 nmol/mouse) was 0.74 ± 0.38 % IA/g, the kidney uptake ([3]; irrespective of the injected amount of peptide) was ~10 % IA/g and the “ALB (albumin), plasma” value [1] was 23 ± 2 g/L. The “ALP (alkaline phosphatase), plasma” value [1] was 76 ± 21 U/L, the “BUN (blood urea nitrogen), plasma” value [1] was 5.8 ± 1.0 mmol/L and the “CRE (creatinine), plasma” value [1] was <18 µmol/L. The “Organ mass Brain” value [1] was 440 ± 23 mg, the “Organ mass Kidneys” value [1] was 352 ± 27 mg and the “Organ mass Liver” value [1] was 1195 ± 57 mg. For the same compound, the “Organ mass Spleen” value [1] was 86 ± 19 mg, the Median survival ([4]; 0.2 nmol (Day 0, Day 7)) was 21 days and the tumor growth delay ([4]; 0.2 nmol (Day 0, Day 7)) was 9.0 ± 5.5 days. The tumor doubling time ([4]; 0.2 nmol, regrowth phase, fitted exponential curve) was 3.4 ± 3.6 days.
